Key:
[1] = target: Rad51;Rad52 (Saccharomyces cerevisiae) (UniProt P06778); test: EM; conditions: RPA pre-bound, 60 mM NaCl, Rad52 EMSA: 10 mM Tris-HCl pH 8, 5 mM MgCl2, 100 mM NaCl, 37 C, 10 min, 0.27 uM XV2, 8% native PAGE, filament assays: SEB buffer, 60 mM NaCl (or titrated) …
[2] = target: Rad51;Rad52-L264P L264P (Saccharomyces cerevisiae) (UniProt P06778); test: EM; conditions: RPA pre-bound, 60 mM NaCl (WT Rad52 55%); Rad52 EMSA: 10 mM Tris-HCl pH 8, 5 mM MgCl2, 100 mM NaCl, 37 C, 10 min, 0.27 uM XV2, 8% native PAGE; filament assays: SEB buffer, 60 mM NaCl (or titrated) …; scale: % of complete Rad51 filaments associated with Rad52-L264P
[3] = target: Rad51;Rad52 (Saccharomyces cerevisiae) (UniProt P06778); test: EMSA (glutaraldehyde-fixed, agarose); conditions: Rad52 EMSA: 10 mM Tris-HCl pH 8, 5 mM MgCl2, 100 mM NaCl, 37 C, 10 min, 0.27 uM XV2, 8% native PAGE, filament assays: SEB buffer, 60 mM NaCl (or titrated) …, scale: mM NaCl
[4] = target: Rad51;Rad52-L264P L264P (Saccharomyces cerevisiae) (UniProt P06778); test: EMSA (glutaraldehyde-fixed, agarose); conditions: Rad52 EMSA: 10 mM Tris-HCl pH 8, 5 mM MgCl2, 100 mM NaCl, 37 C, 10 min, 0.27 uM XV2, 8% native PAGE, filament assays: SEB buffer, 60 mM NaCl (or titrated) …, scale: mM NaCl

Rad51;Rad52 (Saccharomyces cerevisiae), sequence (P06778 whole entry, looked up): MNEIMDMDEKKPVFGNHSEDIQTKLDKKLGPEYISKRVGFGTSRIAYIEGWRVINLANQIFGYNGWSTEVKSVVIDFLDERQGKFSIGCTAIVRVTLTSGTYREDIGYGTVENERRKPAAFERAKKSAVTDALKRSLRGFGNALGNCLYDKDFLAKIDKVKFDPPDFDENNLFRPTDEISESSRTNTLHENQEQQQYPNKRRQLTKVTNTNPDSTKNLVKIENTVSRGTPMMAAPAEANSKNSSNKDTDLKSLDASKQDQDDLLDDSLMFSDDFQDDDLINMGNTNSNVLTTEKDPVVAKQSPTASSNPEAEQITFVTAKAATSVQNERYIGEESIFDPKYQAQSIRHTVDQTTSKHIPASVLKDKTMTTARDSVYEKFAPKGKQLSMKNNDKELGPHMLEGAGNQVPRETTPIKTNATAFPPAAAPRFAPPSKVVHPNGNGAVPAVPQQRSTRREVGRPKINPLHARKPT
Rad51;Rad52-L264P L264P (Saccharomyces cerevisiae), sequence (P06778 whole entry L264P, looked up): as the sequence (P06778 whole entry, looked up) above, with L264P counted along it

Substance: 400-nt ssDNA fragment
- binding signal (% complete Rad51 filaments) ([1]; 55% of complete filaments carry Rad52): 48
- binding signal ([1]; scale: % of complete Rad51 filaments associated with Rad52): 55
- binding signal [2]: 74
- K half ([3]; RPA pre-bound, NaCl titration during assembly): 90
- K half [3]: 400
- K half ([4]; RPA pre-bound, NaCl added after assembly, no difference from WT): 400
- K half [4]: 90

— paper PMC3794917
